According to patent US20060275758A1, “Use of pp2a phosphatase modulators in the treatment of mental disorders” (priority 2002, published 2006):

Legend:
[1] = test system: GST-2E11 recombinant protein
PP2A phosphatase = test: In vitro dephosphorylation of phosphorylated GST-2E11 with HTB-14 whole cell extracts; format: biochemical, Human; details: HTB-14 cell extracts (500 μg) plus 400 μM okadaic acid, 30 min, room temperature
Method: In vitro phosphorylated GST-2E11 fusion protein was incubated at room temperature for 30 min with 500 μg of whole cell extracts of Human glioblastoma, astrocytoma cell line (ATCC number: HTB-14) with or without 400 μM of the PP2A phosphatase inhibitor okadaic acid (Sigma). HTB-14 whole cell extracts were prepared as follow: cells were washed three times with ice-cold TBS buffer (10 mM Tris-HCl [pH 8.0], 120 mM NaCl) and lysed at 4° C. for 30 min in EBC buffer (50 mM Tris-HCl [pH 8.0], 120 mM NaCl, 0.5% Nonidet P-40). Then the lysate was centrifugated for 10 min at 13.000×g at 4° C. to pellet cell debris. Proteins present in the supernatant were quantified by the standard Bradford's method (Bio-Rad Protein Assay). The proteins were then resolved by 10% SDS-PAGE, and visualized by autoradiography.
The phosphorylated radiolabeled GST-2E11 proteins obtained from the previous assay were incubated in the presence of HTB-14 cell extracts containing the PP2A phosphatase to determine whether PP2A is capable of dephosphorylating GST-2E11 proteins. In this experiment, a protein that is dephosphorylated by PP2A is not radioactive after incubation in the presence of HTB-14 cell extracts any more. Thus dephosphorylation of the GST-2E11 protein is monitored by disappearance of the signal visualized by autoradiography. […]

GSK-3β = test: In vitro phosphorylation assay of GST-2E11 (KCNQ2-15b fusion protein) with recombinant GSK-3β kinase and PKA; format: biochemical; details: LiCl added to the kination mix (0, 8.3, 25, 75, 225 mM); autoradiography band at about 45 kD; read-out: LiCl concentration at which the phosphorylation state of GST-2E11 was reduced by 50%
Method: Expression and purification of the GST-2E11 fusion protein were performed as described above. Beads with bound fusion protein corresponding to 1 ml of bacterial clear lysate were washed three times in NETN and one time with HMK buffer without DTT (20 mM Tris-HCl [pH 7.5], 120 mM NaCl, 12 mM MgCl2). Beads were resuspended in 240 μl of reaction mix (24 μl of 10× HMK Buffer with 20 mM DTT, 40 units of Protein Kinase A Catalytic Subunit [PKA from bovine heart, 250 units/vial, Sigma] in 40 mM DTT, 5 μl of 24 mM ATP and 207 μl of distilled water) and incubated for 30 min at room temperature. Beads were then washed three times in NETN buffer and one time in GSK -3β reaction buffer (20 mM Tris-HCl [pH 7.5], 10 mM MgCl2, 5 mM DTT) (New England Biolabs). Beads were then resuspended in 50 μl of reaction mix (5 μl of 10× GSK-3β reaction buffer, 1 μl of [^32P]γATP 10 mCi/ml, 50 U of recombinant GSK-3β[New England Biolabs], and distilled water for a final volume of 50 μl) and incubated at room temperature for 30 min. After three washes in NETN buffer, phosphorylated proteins were boiled in 2× Sample Buffer (125 mM Tris-HCl [pH 6.8], 4% SDS, 20% glycerol, 1.4 M β-Mercapto ethanol), resolved by 10% SDS-PAGE, and visualized by autoradiography.
In this phosphorylation assay, non-radiolabeled polypeptides to be tested are incubated in the presence of GSK-3β, PKA and radioactive ATP. […]

GST recombinant protein = biological target: T1, GST recombinant protein (UniProt P08515 1-218 = GST); test: solid phase overlay assay: GST blotted on nitrocellulose, probed with 32P-labeled GST-PPP2R2C, autoradiography
T1 construct: Negative control in the overlay assay; also called Glutathione S-transferase; pGEX2TK plasmid product
Method: After 4.5 hr of incubation, the membrane was washed with Hyb75 buffer, 1 mM DTT, 1% (w/v) non-fat dry milk three times for 15 min at room temperature. The blots were analyzed by autoradiography.

Molecule	phosphorylation of GST-2E11 with 5 µg of CREB phosphopeptides added as competitor [1]	phosphorylation with [32P]γATP, band at about 45 kD by autoradiography [1]	other results
Protein Kinase A Catalytic Subunit (PKA from bovine heart, Sigma)	A band did still appear at a position corresponding to the size of GST-2E11, but the intensity of the band was very significantly lower	Thus the GST-2E11 protein is phosphorylated by GSK-3β and PKA in vitro	
recombinant GSK-3β kinase (New England Biolabs)	A band did still appear at a position corresponding to the size of GST-2E11, but the intensity of the band was very significantly lower	Thus the GST-2E11 protein is phosphorylated by GSK-3β and PKA in vitro	
C=C1[C@@H](O)[C@@H]2O[C@]3(CC[C@H](/C=C/[C@@H](C)[C@@H]4CC(C)=C[C@@]5(O[C@H](C[C@@](C)(O)C(=O)O)CC[C@H]5O)O4)O3)CC[C@H]2O[C@@H]1[C@@H](O)C[C@H](C)[C@H]1O[C@@]2(CCCCO2)CC[C@H]1C [okadaic acid]			intensity of the GST-2E11 band versus the band of phosphorylated GST-2E11 (reference) (PP2A phosphatase): only slightly weaker
PP2A phosphatase in HTB-14 whole cell extracts			dephosphorylation of 32P-phosphorylated GST-2E11 (loss of the autoradiography band), with or without okadaic acid [1]: In the line loaded with GST-2E11 fusion proteins incubated in the presence of HTB-14 cell extracts, the band had an extremely weaker intensity
[Cl-].[Li+] [LiCl]			IC50 (GSK-3β): ~50 mM
GST-PPP2R2C radiolabeled recombinant protein (other, radiolabeled with [32P]-γATP by Protein Kinase A Catalytic Subunit, Used as the soluble probe in the solid phase overlay assay; also called PP2A/Bγ; pGEX-2TK-PPP2R2C; not shown: glutathione S-transferase encoded by the pGEX-2TK vector (Amersham Pharmacia Biotech)) MGEDTDTRKINHSFLRDHSYVTEADIISTVEFNHTGELLATGDKGGRVVIFQREPESKNAPHSQGDYDVYSTFQSHEPEFDYLKSLEIEEKINKIKWLPQQNAAHSLLSTNDKTIKLWKITERDKRPEGYNLKDEEGKLKDLSTVTSLQVPVLKPMDLMVEVSPRRIFANGHTYHINSISVNSDCETYMSADDLRINLWHLAITDRSFNIVDIKPANMEDLTEVITASEFHPHHCNLFVYSSSKGSLRLCDMPAAALCDKHSKLFEEPEDPSNRSFFSEIISSVSDVKFSHSDRYMLTRDYLTVKVWDLNMEARPIETYQVHDYLRSKLCSLYENDCIFDKFECAWNGSDSVIMTGAYNNFFRMFDRNTKRDVTLEASRESSKPRAVLKPRRVCVGGKRRRDDISVDSLDFTKKILHTAWHPAENIIAIAATNNLYIFQDKVNSDMH			binding result (GST recombinant protein): no binding (tested: 100 ng, 10 ng and 0.1 ng of GST loaded)
